The target of this assay is human plasma kallikrein (active form) (human), P03952. Kind of assay: Ki,app on full length pKal, enzyme inhibition. The settings on record: remark: other sources report otherwise.

Changes are numbered by the printed parent chain.

Sequence of human plasma kallikrein (active form) (human), P03952 (P03952 20-390, chain 1 of 2): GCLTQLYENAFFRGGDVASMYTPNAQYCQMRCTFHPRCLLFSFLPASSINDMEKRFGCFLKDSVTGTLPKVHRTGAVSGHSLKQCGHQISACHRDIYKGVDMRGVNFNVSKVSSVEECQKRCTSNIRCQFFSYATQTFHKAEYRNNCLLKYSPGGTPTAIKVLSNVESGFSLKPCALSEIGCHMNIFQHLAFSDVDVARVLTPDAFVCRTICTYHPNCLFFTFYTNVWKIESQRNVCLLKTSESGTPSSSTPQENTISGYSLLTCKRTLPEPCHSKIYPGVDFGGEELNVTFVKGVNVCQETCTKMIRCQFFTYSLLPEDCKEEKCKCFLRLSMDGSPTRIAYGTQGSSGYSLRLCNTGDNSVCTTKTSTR
Sequence of human plasma kallikrein (active form) (human), P03952 (P03952 391-638, chain 2 of 2): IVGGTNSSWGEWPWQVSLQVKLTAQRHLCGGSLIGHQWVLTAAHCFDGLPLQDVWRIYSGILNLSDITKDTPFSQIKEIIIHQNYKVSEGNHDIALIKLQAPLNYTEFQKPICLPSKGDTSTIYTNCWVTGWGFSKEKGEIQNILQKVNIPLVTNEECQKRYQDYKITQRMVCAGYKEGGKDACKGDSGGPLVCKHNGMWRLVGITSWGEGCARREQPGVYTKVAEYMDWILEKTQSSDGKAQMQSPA

B1: X115-A03 (antibody, V domains shown)
VL: DIQMTQSPSTLSASVGDRVTITCRASQSISSWLAWYQQKPGKAPKLLIYKASTLESGVPSRFSGSGSGTEFTLTISSLQPDDFATYYCQQYNTYWTFGQGTKVEIK
VH: EVQLLESGGGLVQPGGSLRLSCAASGFTFSHYIMMWVRQAPGKGLEWVSGIYSSGGITVYADSVKGRFTISRDNSKNTLYLQMNSLRAEDTAVYYCAWRRIGVPRRDSFDMWGQGTMVTVSS
Regarding B1, the Ki came to 0.16 nM.

B2: X115-G04 (antibody, V domains shown)
VL: B1 VL
VH: B1 VH with W98Y, I101T, S108E, M111I
B2: the Ki amounted to 0.6 nM.

B3: X115-D01 (antibody, V domains shown)
VL: B1 VL
VH: EVQLLESGGGLVQPGGSLRLSCAASGFTFSIYSMHWVRQAPGKGLEWVSSIYPSRGMTWYADSVKGRFTISRDNSKNTLYLQMNSLRAEDTAVYYCAYRRTGIPRRDAFDIWGQGTMVTVSS
Regarding B3, the Ki amounted to 0.18 nM.

B4: X115-F02 (Fab, V domains shown)
VL: B1 VL
VH: B1 VH with W98Y, S108E, M111I
Take B4: the Ki came out at 0.089 nM.

B5: X115-B07 (antibody, V domains shown)
VL: EIVLTQSPGTLSLSPGERATLSCRTSQFVNSNYLAWYQQKPGQAPRLLIYGASSRATGIPDRFSGSGSGTDFTLTISRLEPEDFAVYYCQQSSRTPWTFGQGTKVEIK
VH: EVQLLESGGGLVQPGGSLRLSCAASGFTFSHYLMTWVRQAPGKGLEWVSYISPSGGHTIYADSVKGRFTISRDNSKNTLYLQMNSLRAEDTAVYYCAMVGQGIRGRSRTSYFAQWGQGTLVTVSS
B5 yielded a Ki of 0.33 nM.

B6: X115-H06 (antibody, V domains shown)
VL: B5 VL
VH: B5 VH with M98R, G100A, R104S, G105A, A113D, Q114Y
In the case of B6, the Ki was 0.35 nM.

B7: X115-D05 (antibody, V domains shown)
VL: B5 VL
VH: EVQLLESGGGLVQPGGSLRLSCAASGFTFSDYMMAWVRQAPGKGLEWVSSIVPSGGHTHYADSVKGRFTISRDNSKNTLYLQMNSLRAEDTAVYYCARVARGIAARSRTSYFDYWGQGTLVTVSS
For the molecule B7, the Ki came to 0.25 nM.

B8: X115-E09 (antibody, V domains shown)
VL: B5 VL
VH: B5 VH with M98R, G100A, R104A, G105A, Y111S, F112V, A113D
B8 yielded a Ki of 0.34 nM.

The values are drawn from patent US8816055.
